Results taken from US20250179210A1, “ANTI-CEACAM5 ANTIBODIES AND CONJUGATES AND USES THEREOF” (Merck Patent GmbH, priority 2022, published 2025).

Target: Recombinant Macaca fascicularis CEACAM5_ECD-His-biotin (Syngene) (Macaca fascicularis)
Experiment: BLI (Octet Red), biotinylated antigen captured on streptavidin biosensor, Fab as analyte 6.25-200 nM

Recombinant Macaca fascicularis CEACAM5_ECD-His-biotin (Syngene) (Macaca fascicularis), sequence (chain, as listed by the source limits assumed, form in doubt): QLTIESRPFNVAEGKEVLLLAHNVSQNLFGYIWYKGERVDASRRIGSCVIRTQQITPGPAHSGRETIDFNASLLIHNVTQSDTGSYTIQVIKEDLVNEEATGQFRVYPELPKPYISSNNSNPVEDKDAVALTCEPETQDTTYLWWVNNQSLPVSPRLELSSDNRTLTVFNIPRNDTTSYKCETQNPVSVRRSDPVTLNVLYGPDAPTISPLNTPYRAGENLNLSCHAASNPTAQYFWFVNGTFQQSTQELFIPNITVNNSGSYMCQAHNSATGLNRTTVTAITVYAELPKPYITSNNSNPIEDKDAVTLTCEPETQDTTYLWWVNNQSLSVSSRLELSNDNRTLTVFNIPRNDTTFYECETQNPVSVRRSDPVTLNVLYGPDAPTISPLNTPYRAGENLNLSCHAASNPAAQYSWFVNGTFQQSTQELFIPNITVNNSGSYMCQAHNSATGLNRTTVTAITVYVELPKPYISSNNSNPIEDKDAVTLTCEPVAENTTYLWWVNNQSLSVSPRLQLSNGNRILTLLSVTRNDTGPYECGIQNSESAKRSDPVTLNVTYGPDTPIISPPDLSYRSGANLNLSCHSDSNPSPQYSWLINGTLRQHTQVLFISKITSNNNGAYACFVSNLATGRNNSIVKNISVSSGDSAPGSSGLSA

B1: Fab of mAb1 (Fab, V domains shown)
VH: EVQLQESGPGLVKPSQTLSLTCTVSDGSVSRGGYYLTWIRQHPGKGLEWIGYIYYSGSTYFNPSLRSRVTMSVDTSKNQFSLKLSSVTAADTAVYYCARGIAVAPFDYWGQGTLVTVSS
VL: EIVLTQSPATLSVSPGERATLSCRTSQSVRSNLAWYQQKPGQAPRLLIYAASTRATGIPARFSGSGSGTEFTLTISSLQSEDFAVYYCQQYTNWPFTFGPGTKVDIK
B1 showed a Kd of 14.1 nM.
